This assay concerns the target mouse PIEZO1-S2472E mutant (mouse) (UniProt E2JF22). The experiment in a line: cryo-EM structure.

In general, stoichiometry N refers to a count of units in the complex or per binding partner.

In turn, “mouse PIEZO1-S2472E mutant, E2JF22 1-2547” returned a stoichiometry N of 3.

(Values after publication doi:10.1101/2023.09.28.559900.)
